In patent publication US20250002610A1 (Genmab, published 2025):
Positions count from the first letter of the chain named.

B1: IgG1-DR4-FERR (antibody, V domains shown)
VH: QVQLQESGPGLVKPSGTLSLTCAVSGGSISSYSWWSWIRQPPGKGLEWIGELYHSGSTNYNPSLKSRVTISVDKSKNQFSLKLRSVTAADTAVYYCVRGVATIDYWGQGTLVTVSS
VL: QSALTQPPSASGSPGQSVTISCTGTSSDVGGYNFVSWYQQDPGKAPKLLIYEVTKRPSGVPDRFSGSKSGNTASLTVSGLQAEDEADYYCSSYAGSNNVMFGGGTKLTVLG
notes: Bivalent monoclonal IgG1 lambda
B2: BisG1-FAPα-FERL/DR4-FERR (bispecific antibody, human IgG1, kappa, lambda)
heavy 1: EVQLLESGGGLVQPGGSPRLSCEASGFTFSSYALSWVRQAPGKGLEWVSAISGSGGGRYYADSVKGRFTISRDNSKNTLFLQMNSLRAEDTAVYYCAKEGYSSSGTYWDHWGQGTLVTVSSASTKGPSVFPLAPSSKSTSGGTAALGCLVKDYFPEPVTVSWNSGALTSGVHTFPAVLQSSGLYSLSSVVTVPSSSLGTQTYICNVNHKPSNTKVDKRVEPKSCDKTHTCPPCPAPEFERGPSVFLFPPKPKDTLMISRTPEVTCVVVDVSHEDPEVKFNWYVDGVEVHNAKTKPREEQYNSTYRVVSVLTVLHQDWLNGKEYKCKVSNKALPAPIEKTISKAKGQPREPQVYTLPPSREEMTKNQVSLTCLVKGFYPSDIAVEWESNGQPENNYKTTPPVLDSDGSFLLYSKLTVDKSRWQQGNVFSCSVMHEALHNHYTQKSLSLSPG
light 1: AIQMTQSPSSVSASVGDRVTITCRASQGVSSWLAWYQQKPGRAPKLLIYVASTLQSGVPSRFSGSGSGTDFTLTINSLQPEDFATYYCQQANSFPPTFGQGTRLEMKRTVAAPSVFIFPPSDEQLKSGTASVVCLLNNFYPREAKVQWKVDNALQSGNSQESVTEQDSKDSTYSLSSTLTLSKADYEKHKVYACEVTHQGLSSPVTKSFNRGEC
heavy 2: QVQLQESGPGLVKPSGTLSLTCAVSGGSISSYSWWSWIRQPPGKGLEWIGELYHSGSTNYNPSLKSRVTISVDKSKNQFSLKLRSVTAADTAVYYCVRGVATIDYWGQGTLVTVSSASTKGPSVFPLAPSSKSTSGGTAALGCLVKDYFPEPVTVSWNSGALTSGVHTFPAVLQSSGLYSLSSVVTVPSSSLGTQTYICNVNHKPSNTKVDKRVEPKSCDKTHTCPPCPAPEFERGPSVFLFPPKPKDTLMISRTPEVTCVVVDVSHEDPEVKFNWYVDGVEVHNAKTKPREEQYNSTYRVVSVLTVLHQDWLNGKEYKCKVSNKALPAPIEKTISKAKGQPREPQVYTLPPSREEMTKNQVSLTCLVKGFYPSDIAVEWESNGQPENNYKTTPPVLDSDGSFFLYSRLTVDKSRWQQGNVFSCSVMHEALHNHYTQKSLSLSPG
light 2: QSALTQPPSASGSPGQSVTISCTGTSSDVGGYNFVSWYQQDPGKAPKLLIYEVTKRPSGVPDRFSGSKSGNTASLTVSGLQAEDEADYYCSSYAGSNNVMFGGGTKLTVLGQPKAAPSVTLFPPSSEELQANKATLVCLISDFYPGAVTVAWKADSSPVKAGVETTTPSKQSNNKYAASSYLSLTPEQWKSHRSYSCQVTHEGSTVEKTVAPTECS
notes: Human IgG1 bispecific made by controlled Fab-arm exchange of IgG1-FAPα-FERL and IgG1-DR4-FERR; monovalent for FAPα and for DR4; also called GEN1057
B3: IgG1-FAPα-FERL (antibody)
heavy: B2 heavy 1
light: B2 light 1
notes: Bivalent monoclonal IgG1 kappa
B4: BisG1-b12-FERL/DR4-FERR (bispecific antibody, human IgG1, kappa, lambda)
heavy 1: QVQLVQSGAEVKKPGASVKVSCQASGYRFSNFVIHWVRQAPGQRFEWMGWINPYNGNKEFSAKFQDRVTFTADTSANTAYMELRSLRSADTAVYYCARVGPYSWDDSPQDNYYMDVWGKGTTVIVSSASTKGPSVFPLAPSSKSTSGGTAALGCLVKDYFPEPVTVSWNSGALTSGVHTFPAVLQSSGLYSLSSVVTVPSSSLGTQTYICNVNHKPSNTKVDKRVEPKSCDKTHTCPPCPAPEFERGPSVFLFPPKPKDTLMISRTPEVTCVVVDVSHEDPEVKFNWYVDGVEVHNAKTKPREEQYNSTYRVVSVLTVLHQDWLNGKEYKCKVSNKALPAPIEKTISKAKGQPREPQVYTLPPSREEMTKNQVSLTCLVKGFYPSDIAVEWESNGQPENNYKTTPPVLDSDGSFLLYSKLTVDKSRWQQGNVFSCSVMHEALHNHYTQKSLSLSPG
light 1: EIVLTQSPGTLSLSPGERATFSCRSSHSIRSRRVAWYQHKPGQAPRLVIHGVSNRASGISDRFSGSGSGTDFTLTITRVEPEDFALYYCQVYGASSYTFGQGTKLERKRTVAAPSVFIFPPSDEQLKSGTASVVCLLNNFYPREAKVQWKVDNALQSGNSQESVTEQDSKDSTYSLSSTLTLSKADYEKHKVYACEVTHQGLSSPVTKSFNRGEC
heavy 2: B2 heavy 2
light 2: B2 light 2
notes: Fab-arm exchange of IgG1-b12-FERL and IgG1-DR4-FERR; also called bsIgG1-ctrl-FERLxDR4-FERR
B5: BisG1-FAPα-FEAL/b12-FEAR (bispecific antibody, human IgG1, kappa)
heavy 1: B2 heavy 1 with R240G, D269A
light 1: B2 light 1
heavy 2: B4 heavy 1 with R246G, D275A, L415F, K419R
light 2: B4 light 1
notes: Fab-arm exchange of IgG1-FAPα-FEAL and IgG1-b12-FEAR

Tests used:
[1] = target: T1, human DR4 (Death Receptor 4), cell surface expressed on human tumor cell lines (human, UniProt O00220 24-468); test: flow cytometry, A549 cells, n = 1
T1 construct: also called TNFRSF10A; TRAIL-R1
T1 sequence: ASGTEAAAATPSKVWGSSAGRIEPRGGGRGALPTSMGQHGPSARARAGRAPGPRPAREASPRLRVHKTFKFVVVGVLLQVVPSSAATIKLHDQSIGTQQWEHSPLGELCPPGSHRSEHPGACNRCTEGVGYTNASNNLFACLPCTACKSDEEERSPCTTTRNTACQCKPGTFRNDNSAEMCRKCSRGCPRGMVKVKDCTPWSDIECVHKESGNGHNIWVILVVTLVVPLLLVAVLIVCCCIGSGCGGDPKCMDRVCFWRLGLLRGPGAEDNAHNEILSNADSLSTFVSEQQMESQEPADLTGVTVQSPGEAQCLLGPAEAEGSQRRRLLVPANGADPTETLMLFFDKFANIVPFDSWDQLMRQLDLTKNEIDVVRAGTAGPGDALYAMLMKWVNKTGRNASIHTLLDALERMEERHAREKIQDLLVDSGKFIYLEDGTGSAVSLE

[2] = target: T2, cynomolgus monkey FAPα on Expi293F cells (cynomolgus monkey (Macaca fascicularis), UniProt Q12884 1-760 (human entry)); test: flow cytometry, Expi293F cells expressing cynomolgus monkey FAPα, n = 2
T2 sequence: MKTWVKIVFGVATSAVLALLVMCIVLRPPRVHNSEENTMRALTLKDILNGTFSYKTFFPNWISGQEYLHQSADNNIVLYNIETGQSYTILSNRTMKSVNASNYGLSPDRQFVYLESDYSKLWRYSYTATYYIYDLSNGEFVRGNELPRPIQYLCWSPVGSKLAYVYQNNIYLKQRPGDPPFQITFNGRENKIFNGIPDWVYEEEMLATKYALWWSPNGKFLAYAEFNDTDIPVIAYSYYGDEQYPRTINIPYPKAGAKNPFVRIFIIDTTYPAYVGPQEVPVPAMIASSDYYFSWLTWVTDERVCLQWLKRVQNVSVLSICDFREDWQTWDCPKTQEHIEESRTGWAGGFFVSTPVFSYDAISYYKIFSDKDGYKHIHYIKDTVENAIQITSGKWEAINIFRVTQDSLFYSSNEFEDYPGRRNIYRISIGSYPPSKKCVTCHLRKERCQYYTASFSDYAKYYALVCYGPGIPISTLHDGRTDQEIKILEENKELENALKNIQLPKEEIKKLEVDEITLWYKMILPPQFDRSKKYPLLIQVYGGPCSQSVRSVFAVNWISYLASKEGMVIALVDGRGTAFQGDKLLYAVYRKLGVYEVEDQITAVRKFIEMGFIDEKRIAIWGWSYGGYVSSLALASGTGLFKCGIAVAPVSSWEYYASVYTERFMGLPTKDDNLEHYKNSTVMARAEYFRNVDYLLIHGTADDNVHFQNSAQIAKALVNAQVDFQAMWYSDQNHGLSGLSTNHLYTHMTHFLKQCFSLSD
Description: Binding of BisG1-FAPα-FERL/DR4-FERR, BisG1-FAPα-FEAL/b12-FEAR and IgG1-FAPα-FERL to FAPα of species commonly used for nonclinical toxicology studies was assessed by flow cytometry using Expi293F cells transiently expressing FAPα from different animal species. IgG1-b12 was included as negative control.
Expi293F cells expressing recombinant FAPα from various species (human, cynomolgus monkey, dog, pig, rat or mouse) were seeded (20,000 cells/well) in 96-Well round bottom plates (Greiner Bio-one, Cat #650101). Antibody dilutions were prepared using FACS buffer, consisting of PBS (Capricorn Scientific, Cat #PBS-10XA, diluted to 1×PBS in distilled water)+1% BSA (Roche, Cat #10735086001)+0.02% Sodium Azide (Bio-World, Cat #41920044-3). Plates were centrifuged, supernatant was removed, and cells were resuspended in 100 μL of antibody dilutions (concentration range 30-0.00017 μg/mL with three-fold serial dilutions using FACS buffer) of BisG1-FAPα-FERL/DR4-FERR, BisG1-FAPα-FEAL/b12-FEAR, IgG1-FAPα-FERL and IgG1-b12 and incubated for 30 min at 4° C. […] After 30 min incubation at 4° C., cells were washed with FACS buffer and resuspended in FACS buffer supplemented with TO-PRO-3 Iodide viability marker (Invitrogen, Cat #T3605, diluted 1:4,000). Antibody binding to viable cells (gMFI of PE on TO-PRO-3 negative cells) was analyzed by flow cytometry on a FACS Celesta and FACS_Diva software (first two experiments) or iQue® 3 and FlowJo software (last experiment). gMFI was determined and visualized using GraphPad Prism. Binding curves were analyzed using nonlinear regression analysis. The concentration (pg/mL) at which 50% of the maximal effect was observed (EC₅₀) was derived from the fitted curves.

| Binder | EC50 [1] [µg/mL] | EC50 [2] [µg/mL] |
| --- | --- | --- |
| B1 | 0.51 |  |
| B2 | 0.86 | 0.36 |
| B3 |  | 0.11 |
| B4 | 0.89 |  |
| B5 |  | 0.16 |
